{"source": "paper PMC5729044", "molecular_target": "1wa3-wt, the wild-type trimeric aldolase from which I3-01 was derived", "experiment": "SEC"}
{"substance": "1wa3-wt, the wild-type trimeric aldolase from which I3-01 was derived (enzyme)", "values": [{"measurement": "stoichiometry N", "result": 3}]}
